Results from the supplement of paper PMC5998384.

How the values were obtained:
[1] = system: HeLa Kyoto; assay: solubility in G1/S (NP-40 vs SDS abundance) (log2 ratio); higher = more soluble; settings: cell cycle stage: G1/S
[2] = system: HeLa Kyoto; assay: melting temperature (median over replicates), in situ; higher = more thermally stable
[3] = system: HeLa Kyoto; assay: solubility change mitosis vs G1/S (difference of NP-40 vs SDS log2 ratios) (log2 ratio difference); higher = more soluble in mitosis
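For melting temperature (median over replicates), in situ in this document: HeLa Kyoto cells synchronized by double thymidine or nocodazole block, proteins quantified by TMT10plex mass spectrometry, three independent biological replicates.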
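For solubility change mitosis vs G1/S (difference of NP-40 vs SDS log2 ratios) in this document: synchronized HeLa Kyoto cells (double thymidine block for G1/S, nocodazole release for mitosis), protein amounts in NP-40 versus SDS lysates quantified by mass spectrometry, three biological replicates.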
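For solubility in G1/S (NP-40 vs SDS abundance) in this document: HeLa Kyoto cells arrested at G1/S by double thymidine block, proteins quantified by TMT10plex mass spectrometry in mild NP-40 versus SDS extracts, three biological replicates.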

Sequence of TGOLN2 (chain, as listed by the source): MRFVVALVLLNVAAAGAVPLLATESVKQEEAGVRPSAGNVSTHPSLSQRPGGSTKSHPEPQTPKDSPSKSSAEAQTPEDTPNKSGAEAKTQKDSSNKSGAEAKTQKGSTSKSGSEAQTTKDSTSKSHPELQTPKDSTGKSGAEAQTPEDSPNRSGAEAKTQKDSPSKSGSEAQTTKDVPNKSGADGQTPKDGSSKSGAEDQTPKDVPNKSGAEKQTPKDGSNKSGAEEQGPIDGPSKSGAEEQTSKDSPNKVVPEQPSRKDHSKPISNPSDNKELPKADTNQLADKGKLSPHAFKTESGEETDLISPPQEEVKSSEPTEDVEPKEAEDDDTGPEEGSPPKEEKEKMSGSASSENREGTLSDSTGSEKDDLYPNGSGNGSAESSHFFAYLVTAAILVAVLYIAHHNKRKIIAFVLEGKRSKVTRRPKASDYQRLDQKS
Sequence of NFYA (chain, as listed by the source): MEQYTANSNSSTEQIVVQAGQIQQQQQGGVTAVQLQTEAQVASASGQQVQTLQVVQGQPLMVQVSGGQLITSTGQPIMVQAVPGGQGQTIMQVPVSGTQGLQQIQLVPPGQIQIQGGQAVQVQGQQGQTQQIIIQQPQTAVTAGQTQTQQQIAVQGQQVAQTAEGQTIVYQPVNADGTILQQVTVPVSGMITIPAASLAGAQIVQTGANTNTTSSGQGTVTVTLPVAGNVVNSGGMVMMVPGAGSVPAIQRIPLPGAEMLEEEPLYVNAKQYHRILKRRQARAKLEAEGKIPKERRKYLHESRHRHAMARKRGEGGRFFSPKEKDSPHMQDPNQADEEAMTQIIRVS

Substance	solubility in G1/S (log2) [1]	melting temperature ([2]; cell cycle stage: G1/S)	melting temperature ([2]; cell cycle stage: mitosis)	solubility change mitosis (log2) [3]
MGSQALPPGPMQTLIFFDMEATGLPFSQPKVTELCLLAVHRCALESPPTSQGPPPTVPPPPRVVDKLSLCVAPGKACSPAASEITGLSTAVLAAHGRQCFDDNLANLLLAFLRRQPQPWCLVAHNGDRYDFPLLQAELAMLGLTSALDGAFCVDSITALKALERASSPSEHGPRKSYSLGSIYTRLYGQSPPDSHTAEGDVLALLSICQWRPQALLRWVDAHARPFGTIRPMYGVTASARTKPRPSAVTTTAHLATTRNTSPSLGESRGTKDLPPVKDPGALSREGLLAPLGLLAILTLAVATLYGLSLATPGE [TREX1]	-0.198	53.5 °C	56.2 °C	0.329
MAAAAAGAGSGPWAAQEKQFPPALLSFFIYNPRFGPREGQEENKILFYHPNEVEKNEKIRNVGLCEAIVQFTRTFSPSKPAKSLHTQKNRQFFNEPEENFWMVMVVRNPIIEKQSKDGKPVIEYQEEELLDKVYSSVLRQCYSMYKLFNGTFLKAMEDGGVKLLKERLEKFFHRYLQTLHLQSCDLLDIFGGISFFPLDKMTYLKIQSFINRMEESLNIVKYTAFLYNDQLIWSGLEQDDMRILYKYLTTSLFPRHIEPELAGRDSPIRAEMPGNLQHYGRFLTGPLNLNDPDAKCRFPKIFVNTDDTYEELHLIVYKAMSAAVCFMIDASVHPTLDFCRRLDSIVGPQLTVLASDICEQFNINKRMSGSEKEPQFKFIYFNHMNLAEKSTVHMRKTPSVSLTSVHPDLMKILGDINSDFTRVDEDEEIIVKAMSDYWVVGKKSDRRELYVILNQKNANLIEVNEEVKKLCATQFNNIFFLD [CCZ1]	0.0726	50.9 °C	51.8 °C	-0.169
NFYA	-0.0285	58 °C	58.1 °C	-0.0439
MAATMKKAAAEDVNVTFEDQQKINKFARNTSRITELKEEIEVKKKQLQNLEDACDDIMLADDDCLMIPYQIGDVFISHSQEETQEMLEEAKKNLQEEIDALESRVESIQRVLADLKVQLYAKFGSNINLEADES [PFDN4]	-0.219	55.5 °C	53.5 °C	0.523
MEEEGVKEAGEKPRGAQMVDKAGWIKKSSGGLLGFWKDRYLLLCQAQLLVYENEDDQKCVETVELGSYEKCQDLRALLKRKHRFILLRSPGNKVSDIKFQAPTGEEKESWIKALNEGINRGKNKAFDEVKVDKSCALEHVTRDRVRGGQRRRPPTRVHLKEVASAASDGLLRLDLDVPDSGPPVFAPSNHVSEAQPRETPRPLMPPTKPFLAPETTSPGDRVETPVGERAPTPVSASSEVSPESQEDSETPAEEDSGSEQPPNSVLPDKLKVSWENPSPQEAPAAESAEPSQAPCSETSEAAPREGGKPPTPPPKILSEKLKASMGEMQASGPPAPGTVQVSVNGMDDSPEPAKPSQAEGTPGTPPKDATTSTALPPWDLPPQFHPRCSSLGDLLGEGPRHPLQPRERLYRAQLEVKVASEQTEKLLNKVLGSEPAPVSAETLLSQAVEQLRQATQVLQEMRDLGELSQEAPGLREKRKELVTLYRRSAP [PLEKHO2]	0.188	53.2 °C	51.9 °C	0.0528
MSVFGKLFGAGGGKAGKGGPTPQEAIQRLRDTEEMLSKKQEFLEKKIEQELTAAKKHGTKNKRAALQALKRKKRYEKQLAQIDGTLSTIEFQREALENANTNTEVLKNMGYAAKAMKAAHDNMDIDKVDELMQDIADQQELAEEISTAISKPVGFGEEFDEDELMAELEELEQEELDKNLLEISGPETVPLPNVPSIALPSKPAKKKEEEDDDMKELENWAGSM [CHMP4B]	0.507	55 °C	52.5 °C	0.775
MRMSDTVTVKDETATMKDLEAEVKDTTRVENLIKSENYGKILVEKNEHCIENNIDLQRPLQSFGQTGKRSKSSSKLKLVRSLAVCEESPPPPAPEISQENQEKIQIQLTQSFEKEEKPSKDEAEKEKASDKLPRKMLSRDSSQEYTDSTGIDLHEFLVNTLKNNPRDRMMLLKLEQEILDFIGNNESPRKKFPPMTSYHRMLLHRVAAYFGLDHNVDQSGKSVIVNKTSNTRIPDQKFNEHIKDDKGEDFQKRYILKRDNSSFDKDDNQMRIRLKDDRRSKSIEEREEEYQRARDRIFSQDSLCSQENYIIDKRLQDEDASSTQQRRQIFRVNKDASGRSTNSHQSSTENELKYSEPRPWSSTDSDSSLRNLKPAVTKASSFSGISVLTRGDSSGSSKSIGRLSKTGSESSGSVGSSTGSLSHIQQPLPGTALSQSSHGAPVVYPTVSTHSSLSFDGGLNGQVASPSTSFFLLPLEAAGIPPGSILINPQTGQPFINPDGSPVVYNPPMTQQPVRSQVPGPPQPPLPAPPQQPAANHIFSQDNLGSQFSHMSLARQPSADGSDPHAAMFQSTVVLQSPQQSGYIMTAAPPPHPPPPPPPPPPPPPLPPGQPVPTAGYPASGHPVSQPVLQQQGYIQQPSPQMPACYCAPGHYHSSQPQYRPVPSVHYNSHLNQPLPQPAQQTGYQVIPNQQQNYQGIVGVQQPQSQSLVSGQPNSIGNQIQGVVIPYTSVPTYQVSLPQGSQGIPHQTYQQPVMFPNQSNQGSMPTTGMPVYYSVIPPGQQNNLSSSVGYLQHPGSEQVQFPRTTSPCSSQQLQGHQCTAGPPPPPGGGMVMMQLSVPNNPQSCAHSPPQWKQNKYYCDHQRGQKCVEFSSVDNIVQHSPQLSSPIISPAQSPAPAQLSTLKTVRPSGPPLSIMPQFSRPFVPGQGDSRYPLLGQPLQYNPPAVLHGHIPNQQGQPGSRHGNRGRRQAKKAASTDLGAGETVVGKVLEITELPDGITRMEAEKLFGELFKIGAKIRWLRDPQSQPRRHPLCCGSGDNTANPERSKPSDLASTYTVLATFPSISAAQNALKKQINSVNKFKLRTSKKHYDFHILERASSQ [R3HDM1]	0.189	52.3 °C	50.9 °C	-0.239
MASQGRRRRPLRRPETVVPGEATETDSERSASSSEEEELYLGPSGPTRGRPTGLRVAGEAAETDSEPEPEPEPTAAPRDLPPLVVQRESAEEAWGTEEAPAPAPARSLLQLRLAESQARLDHDVAAAVSGVYRRAGRDVAALASRLAAAQAAGLAAAHSVRLARGDLCALAERLDIVAGCRLLPDIRGVPGTEPEKDPGPRA [BLOC1S3]	0.568	52.6 °C	54.9 °C	0.0331
MGNTLTCCVSPNASPKLGRRAGSAELYCASDIYEAVSGDAVAVAPAVVEPAELDFGEGEGHHLQHISDREMPEDLALESNPSDHPRASTIFLSKSQTDVREKRKSNHLNHVSPGQLTKKYSSCSTIFLDDSTVSQPNLRTTVKCVTLAIYYHIKNRDANRSLDIFDERSHPLTREKVPEEYFKHDPEHKFIYRFVRTLFSAAQLTAECAIVTLVYLERLLTYAEIDICPTNWKRIVLGAILLASKVWDDQAVWNVDYCQILKDITVEDMNEMERHFLELLQFNINVPASVYAKYYFDLRSLADDNNLNFLFAPLSKERAQNLEAISRLCEDKDLCRAAMRRSFSADNFIGIQRSKAILS [CCNYL1]	-0.167	48.9 °C	49.2 °C	-0.0896
TGOLN2	-0.315	59.5 °C	53.9 °C	0.881
MASPAASSVRPPRPKKEPQTLVIPKNAAEEQKLKLERLMKNPDKAVPIPEKMSEWAPRPPPEFVRDVMGSSAGAGSGEFHVYRHLRRREYQRQDYMDAMAEKQKLDAEFQKRLEKNKIAAEEQTAKRRKKRQKLKEKKLLAKKMKLEQKKQEGPGQPKEQGSSSSAEASGTEEEEEVPSFTMGR [PRKRIP1]	0.499	53.3 °C	53.6 °C	0.169
ABTB2	0.00296		48.8 °C	-0.181
MSGFNFGGTGAPTGGFTFGTAKTATTTPATGFSFSTSGTGGFNFGAPFQPATSTPSTGLFSLATQTPATQTTGFTFGTATLASGGTGFSLGIGASKLNLSNTAATPAMANPSGFGLGSSNLTNAISSTVTSSQGTAPTGFVFGPSTTSVAPATTSGGFSFTGGSTAQPSGFNIGSAGNSAQPTAPATLPFTPATPAATTAGATQPAAPTPTATITSTGPSLFASIATAPTSSATTGLSLCTPVTTAGAPTAGTQGFSLKAPGAASGTSTTTSTAATATATTTSSSSTTGFALNLKPLAPAGIPSNTAAAVTAPPGPGAAAGAAASSAMTYAQLESLINKWSLELEDQERHFLQQATQVNAWDRTLIENGEKITSLHREVEKVKLDQKRLDQELDFILSQQKELEDLLSPLEELVKEQSGTIYLQHADEEREKTYKLAENIDAQLKRMAQDLKDIIEHLNTSGAPADTSDPLQQICKILNAHMDSLQWIDQNSALLQRKVEEVTKVCEGRRKEQERSFRITFD [NUP62]	0.32	51.8 °C	51.7 °C	0.107
MAHRLQIRLLTWDVKDTLLRLRHPLGEAYATKARAHGLEVEPSALEQGFRQAYRAQSHSFPNYGLSHGLTSRQWWLDVVLQTFHLAGVQDAQAVAPIAEQLYKDFSHPCTWQVLDGAEDTLRECRTRGLRLAVISNFDRRLEGILGGLGLREHFDFVLTSEAAGWPKPDPRIFQEALRLAHMEPVVAAHVGDNYLCDYQGPRAVGMHSFLVVGPQALDPVVRDSVPKEHILPSLAHLLPALDCLEGSTPGL [HDHD3]	0.0599	53.9 °C	54.8 °C	0.0289
MELERIVSAALLAFVQTHLPEADLSGLDEVIFSYVLGVLEDLGPSGPSEENFDMEAFTEMMEAYVPGFAHIPRGTIGDMMQKLSGQLSDARNKENLQPQSSGVQGQVPISPEPLQRPEMLKEETRSSAAAAADTQDEATGAEEELLPGVDVLLEVFPTCSVEQAQWVLAKARGDLEEAVQMLVEGKEEGPAAWEGPNQDLPRRLRGPQKDELKSFILQKYMMVDSAEDQKIHRPMAPKEAPKKLIRYIDNQVVSTKGERFKDVRNPEAEEMKATYINLKPARKYRFH [CUEDC2]	0.417	46.8 °C	51.7 °C	0.134
MDSELKEEIPVHEEFILCGGAETQVLKCGPWTDLFHDQSVKRPKLLIFIIPGNPGFSAFYVPFAKALYSLTNRRFPVWTISHAGHALAPKDKKILTTSEDSNAQEIKDIYGLNGQIEHKLAFLRTHVPKDMKLVLIGHSIGSYFTLQMLKRVPELPVIRAFLLFPTIERMSESPNGRIATPLLCWFRYVLYVTGYLLLKPCPETIKSLLIRRGLQVMNLENEFSPLNILEPFCLANAAYLGGQEMMEVVKRDDETIKEHLCKLTFYYGTIDPWCPKEYYEDIKKDFPEGDIRLCEKNIPHAFITHFNQEMADMIADSLKDDLSKM [LDAH]	0.0802	52.3 °C		-0.331
MDTEPNPGTSSVSTTTSSTTTTTITTSSSRMQQPQISVYSGSDRHAVQVIQQALHRPPSSAAQYLQQMYAAQQQHLMLHTAALQQQHLSSSQLQSLAAVQASLSSGRPSTSPTGSVTQQSSMSQTSINLSTSPTPAQLISRSQASSSTSGSITQQTMLLGSTSPTLTASQAQMYLRAQMLIFTPATTVAAVQSDIPVVSSSSSSSCQSAATQVQNLTLRSQKLGVLSSSQNGPPKSTSQTQSLTICHNKTTVTSSKISQRDPSPESNKKGESPSLESRSTAVTRTSSIHQLIAPASYSPIQPHSLIKHQQIPLHSPPSKVSHHQLILQQQQQQIQPITLQNSTQDPPPSQHCIPLQNHGLPPAPSNAQSQHCSPIQSHPSPLTVSPNQSQSAQQSVVVSPPPPHSPSQSPTIIIHPQALIQPHPLVSSALQPGPNLQQSTANQVQATAQLNLPSHLPLPASPVVHIGPVQQSALVSPGQQIVSPSHQQYSSLQSSPIPIASPPQMSTSPPAQIPPLPLQSMQSLQVQPEILSQGQVLVQNALVSEEELPAAEALVQLPFQTLPPPQTVAVNLQVQPPAPVDPPVVYQVEDVCEEEMPEESDECVRMDRTPPPPTLSPAAITVGRGEDLTSEHPLLEQVELPAVASVSASVIKSPSDPSHVSVPPPPLLLPAATTRSNSTSMHSSIPSIENKPPQAIVKPQILTHVIEGFVIQEGLEPFPVSRSSLLIEQPVKKRPLLDNQVINSVCVQPELQNNTKHADNSSDTEMEDMIAEETLEEMDSELLKCEFCGKMGYANEFLRSKRFCTMSCAKRYNVSCSKKFALSRWNRKPDNQSLGHRGRRPSGPDGAAREHILRQLPITYPSAEEDLASHEDSVPSAMTTRLRRQSERERERELRDVRIRKMPENSDLLPVAQTEPSIWTVDDVWAFIHSLPGCQDIADEFRAQEIDGQALLLLKEDHLMSAMNIKLGPALKICARINSLKES [PHC3]	-0.44	46.5 °C	50.2 °C	0.439
